Here are results for one molecule from patent US20140294765A1 (COMPUGEN, published 2014).

In test [1] the target is T1, Peptide 2, amino acid residues 118-135 of SEQ ID NO:10 (human).
T1 construct: Immunisation peptide from the ECD of human LSR
T1 peptide: CQDSVRTVRVVATKQGNA
The experiment in a line: ELISA, hybridoma culture supernatant. How it is done:
FACS analysis was subsequently carried out with purified monoclonal Ab, 8C8, using a goat anti mouse-Alexa Fluor 488 (Invitrogen cat# A10667) as secondary Ab for detection.
Culture supernatants of the hybridoma clones were analyzed by ELISA.
Background: An ELISA detects its analyte on a solid surface through an enzyme-linked reagent.

Test [2] deals with T2, mouse WT LSR protein expressed in stably transfected HEK293 or CHO-K1 cells (mouse, UniProt Q99KG5 36-594).
T2 construct: Made with a C-terminal Flag tag (pcDNA3.1); Lysate for the Western blot; also called WT-Mouse LSR-flag protein
T2 sequence: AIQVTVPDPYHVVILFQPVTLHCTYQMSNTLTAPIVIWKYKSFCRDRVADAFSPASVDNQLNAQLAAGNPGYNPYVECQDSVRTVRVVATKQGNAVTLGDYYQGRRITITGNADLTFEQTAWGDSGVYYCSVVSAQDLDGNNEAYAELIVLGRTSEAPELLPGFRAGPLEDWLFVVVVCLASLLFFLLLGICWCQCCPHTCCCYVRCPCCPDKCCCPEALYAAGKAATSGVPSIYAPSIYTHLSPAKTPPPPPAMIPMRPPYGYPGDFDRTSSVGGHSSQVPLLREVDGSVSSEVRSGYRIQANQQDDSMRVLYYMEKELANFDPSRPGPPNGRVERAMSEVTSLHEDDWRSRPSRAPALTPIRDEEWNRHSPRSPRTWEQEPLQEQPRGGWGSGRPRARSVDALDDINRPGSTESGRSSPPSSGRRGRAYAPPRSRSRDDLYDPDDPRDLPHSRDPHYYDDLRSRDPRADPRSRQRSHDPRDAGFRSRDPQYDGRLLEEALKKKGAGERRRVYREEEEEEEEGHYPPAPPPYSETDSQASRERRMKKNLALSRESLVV
Kind of test: flow cytometry on stably transfected CHO-K1 cells, 8C8 at 1, 2.5, 5 and 10 ug/ml, Geo Mean (FL1).

B1: 8C8, mouse IgG2a monoclonal antibody against human LSR (antibody, V domains shown)
VH: DVKLVESGGGLVKLGGSLKLSCAASGFTFSSYYMSWVRQTPEKRLELVAAINSNGGSTYYPDTVKGRFTISRDNAKNTLYLQMSSLKSEDTALYYCARHDYYGSSFAMDYWGQGTSVTVSS
VL: DIQMTQTTSSLSASLGDRVTISCRASQDISNYLNWYQQKPDGTVKLLIYYTSRLHSGVPSRFSGSGSGTDYSLTISNLEQEDIATYFCQQDSKHPWTFGGGTKLEIK
notes: also called 8C8 mAb; mAb 8C8
With B1, the binding result was “no binding” in test [1] and “binds” in test [2].
